According to the nanobody polyreactivity screen of Harvey et al. (2022):

Assay: yeast display, Sf9 membrane polyspecificity reagent, FACS + sequencing; frameworks hold sequencing errors
How it was run: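 Galactose induction of a Saccharomyces cerevisiae BJ5465 synthetic nanobody display library ran 36–48 hours. The cells were then stained for 1 hour at 4 °C with 10% biotinylated, detergent-solubilized Sf9 membrane reagent, pulled down on streptavidin microbeads and FACS-sorted into low and high (top ~1%) gates on expression and reagent-binding fluorescence. Labels for polyreactivity follow the gate of origin.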

Row | Sequence | polyreactivity (PSR sort gate)
1 | QVQLVESGGGLVQAGGSLRLSCAASGRTFRSYTRGWYRQAAGKERELVAAINRGDRTYADSVKGRFTISRDNAKNTVYLQMNSLKPEDTAVYYCAARYYGGYGKQPRARYGYWGQGTQVTVSS | high polyreactivity
2 | QVQLVESGGGLVQAGGRLRLSCAASGSTLSGNAMGGYRQAPGKERELVAAITSSGGRTYYADSVKGRFTISRDNAKNTVYLQMNSLKPEDTAVYYCAKDRYGWGQGTQVTVSS | high polyreactivity
3 | QVQLVESGGGLVQAGGSLRLSCAASGRTLLPNAMGWSRQAPGKERELVASIRDGGDTNYADSVKGRFTISRDNAKNTVYLQMNSLKPEDTAVYYCNADWWAYYSFGHEYWGQGTQVTVSS | low polyreactivity
4 | QVHLVESGGGLVQAAGSLRLSCAASGRIFSYNAMGWYRPAPGKERELVAAISSDGSTYYADSVKGRFTISRDNAKNTVYLQMNSLKPEDTAVYYCAASQVVWFDYTTAQVGSYKVNYWGQGTQVSVSS | low polyreactivity
5 | QVQLVESGGGLVQAGGSLRLSCAASGFIFATNAMGWYRQAPGKERELGASISSGDNTNYADSVKGRFTISRDNAKNTVYLQMNSLKPEHTAVYYCAAANKGPDQADYHYDQWGEYEYWGQGTQVTVSS | low polyreactivity
6 | QVQLQESGGGLVQAGGSLRLSCAASGSIARYYDMGWYLQAPGKEREFVAGISGGAISYYADSVKGRLTISRDNAKNTVYLQMNSLKPEDTAVYYCAADTCVYQYHSYWGQGTQVTVSS | low polyreactivity
7 | QVQLVESGGGLVQAGGSLRLSCAASGSIFVTYAMGLYRQAPGKERELVAAITSSDRTKYADSVKGRFTISRDNAKNTVYVQMHSLKPEDTAVYYGAKVVRTRYYGGYDYWGQVTQVTVSS | high polyreactivity
8 | QVQLVESGGGLVQAGGSLRLSCAASGSTYSYYAMGWYRQAPGKERELVAAITTSGGRTYYADSVKGRFTISRDNAKNTVYLQMNSLKPEDTAVYYCNARRHWYSAWGYDYWGQGTQVTVSS | high polyreactivity
9 | QVQLEESGGGLVQAGGSLRLSCAASGSISYYYGMGWYRQAPGKERELVAAISTRGGSTYYADSVKGRFTISRDNAKNTVYLQMNSLKPEDTAVYYCNKVYYKRFYYWGQGTQVTVSS | high polyreactivity
10 | QLQLVESGGGLVQAGGSLSLSCAASGSTFDYYDMGWYRQAPGKERELFSYISWSGGSTRYADSVKGRYTISRDNAKNTVYLQMNSLKPEESAVYYCNKSNPDYDRLAIHAFDYWGQGTQLTVSS | low polyreactivity
11 | QVQLVESGGGLVQAGGSLRLSCAASGIIFTDNALGWYRQAPGKERELVATISWSTDNTYYADSVKGRFTISRDNAKNTVYLQMNSLKPEDTAVYYCAAEEYYAYWYQYDYWGQGTQVTVSS | low polyreactivity
12 | QVQLVESGGGLVQAGGSLRLSCAASGSNYRNAMGWYRQAPGKERELVAAISSSGGRTYYADSVKGRFTISRDNAKNTVYLKMNSLKPEDTAVYYCAKVGPYWSRGKYWGQGTQVTVSS | high polyreactivity
13 | QVQLVESGGGLVQAGGSLRLSCAAYGFTIYYYTMGWYRQAPGKERELFAAISHSGSSTYYADSVKGRFTISRDNAKKTVNLQMNSLKPEDTAVYYCAASRSKNSALGGRVSIGDYWGQGTQVTVSS | high polyreactivity
14 | QVQLVDSGGGLVQAVGSLRLSCAASGGIFVPNAMGWYRQAHGKVRELVAAIYYSGGRTYYADSVKGSFTISRDNAKNTVYLQMNRLKPEDTAVYYCAAEYWFVFHHYNYFGQGTQVTVSS | high polyreactivity
15 | QVQLQESGGGLVQAGGSLRLSCAASGSIIEELDMAWYRQAPGKEREFVAAIGTGSTTYYADSVKGRFTSSRDNAKNTVYLQMNSLKPEDTAVYYCAVTYSVYLPFRYWGQGTQVTVSS | high polyreactivity
16 | QVQLVESGGGLVQAGGSLRLSCAASGSTFYYYAMGWYRQAPGKERELVAAIDWSGESTYYADSVKGRFTISRDKAKKTVYLQMHSLKPEDTAVYYCAADLGYPWGYVLFYKQSISYYYWGQGTQVTVSS | low polyreactivity
17 | QVQLVESGGGLVQAGGSLRLSCAASGFSFSRYAMGWYRQAPGKDRELVATITSGGGGTYYADSVKGRFTISRDNAKNTVYLQKNSLKPEDTAVYYCAKYSPYYRNGLDYWGHGTQVTVSS | high polyreactivity
18 | QVQLVESGGGLVQAGGSLRLSCAASGSIFGSYAMGWYRQAPGKERELVAAISYRGGRTYYADSVKGRFTISRDNAKNTVYLQMNSLKPEDTAVYYCNARARNSPPYDYWGQGTQVTVSS | high polyreactivity
19 | QVQLVESGGGLVQAGGSLRLSCAPSGRTFRRYAMGWYRQAPGKEMEFVAAISRRTASTYYADSVKGRFTISRDNAKNTDYLQMNSLKPEDTAVYYCATKSGYSVGNYRYGYWVQGTQVTVSS | low polyreactivity
20 | QVQLVESGGGLVQAGGSLRLSCAASGSTFHVYAMGWYRQAPGKERELVAGITSSGYSTYYADSVKGRFTISRDNAKNTVYLKMNSLKPEETAVYYCNADIRGPYYYHRYDYWGQGTLVTVSS | low polyreactivity
21 | QVQLVESGGGLVQAGCSLRLSCAASGIIYINYAMGWYRQAPGKERELVAVITRGGSTYYADSVKGRFTISRDNAKNTVYLLMNSLKPEDTAVYYCNARYLSWWTGRFNYWGQGTQVTVSS | high polyreactivity
22 | QVQLVESGGGLVQAGGSLRLSCAASGFTFSTYTMGWYRPAPGKVRELVAAITWTGGRKYYADSVKGRFTISRDNAKNTVFLQMNSLKPEDTAVYYCNRAGYTGAEVYGYDYWGQGTQVTVSS | high polyreactivity

Row | Sequence | polyreactivity (PSR sort gate)
23 | QVQLVESGGGLVQAGGSLRLSCAASGFTFAYYAMGWYRQAPGKERELVAAISYSGGSTYYADSVKGRFTISRDNAKNTVYLQMNSLKPEDTAVYYCAAEAGRRYNWGYDYWGQGTQVTVSS | high polyreactivity
24 | QVQLVESGGGLVQAGGSLRLSCVASGRTFATYTLGWYRPAPGKERELVAAITTSGGTYYADSVKGRFTISRDNAKNTVYLQMNSLKPEDTAVYYCANVSYYTSAPWYYYWGQGTQVTVSS | high polyreactivity
25 | QVQLVESGGGLVQAGGSLRLSCAASGRTFSYYTLGWYRQAPGKERELVARISNRGTNTYYADSVKGRFTISRDNAKNTVYLQMNSLKPEDTAVYYCAAYTPPVYWLTRAIRGYYWGQGTQVTVSS | low polyreactivity
26 | QDQLVDSGGVLVQAGGSLRLTCAASGSTFARNAMGWYRQAPGKERELVAAISSGGTTNYADSVKARFTISRDNAKNTVYLQMNSLKPEDTAVYYCNAGFRNVLTSGYLYDYWGQGTQVTVSS | low polyreactivity
27 | QVQLEESGGGLVQEGGSLRLICAASGSTFYVYARGWYRQAPGKERELVAAITGSTGSTYYADSVKGRFTISRDNAKNTVELQMNSLKTEVTAFYYCDADFYGVPIIYDYWRQGTQVTVSS | low polyreactivity
28 | QVQLVESGGGLVQAGGSLRLSCAASGRTFDPNAMGWYRQAPGKERELVAAISGRGTSTYYADSVKGRFTISRDDAKNTVYLQMNSLKPEDTAVYYCAKAGAGESIAKYDYWGQGTQVTVSS | low polyreactivity
29 | QVQLVESGGGLVQAGGSLRLSCSASGRTFANYAMGWYRQAPGKERELVAAISSGGNTYYADSVKGRCTISRDNAKNTVYLQMNSLKPEDTAVYYCAAQPYYYFDEYTQYDYWGQGTQVTVSS | high polyreactivity
30 | QVQLQESGGGLVQAGGSLRLSCAASGSISHYIFMGWYRQAPGKQREFVAGIGYGGTTNYADSVKGRFTISRDNAKNTVYLQRNSLKPEDTGMYYCAAREATEFYLYYWGQGTQVTVSS | low polyreactivity
31 | QVQHVESGGGLVQAGGSLRLSCAASGSIFWYYAKGWYRQAPGKERELVATITSGGSTSYADSVKGRFTISRDNAKNPVYLQMNSLKPEDTAVYYCAAARLFTTYDWGQGTQVTVSS | low polyreactivity
32 | QVQLVESGGGLVQAGGSLRLSCAASGRIFGWYAMGWYRQAPGKERELVAAITWSGTSTYYAYSVKGRFTISRDNAKNTVYLQMNSLKPEDTAVYYCAAEPGWTMDYWGQGTQVTVSS | low polyreactivity
33 | QVQLVESGGGLDQAGGSLRLTCAASGSIFVYNAMGWYRQAPGKEREFVAAITWRGGRTYYADSVKGRFTISRDNAKNTVYLQMNSLKPEDTAVYYCAADGGSTLDYYWGQGTQVTVSS | low polyreactivity
34 | QVQLVESGGGLVQAGGSLRLSCAASGFTFGVYAMGWYRQAPGKERELVAAITATGGSTYYADSVKGRFTISRDNAKNTVYLQMNSLKPADTEVYYCAKPDYYRMGYWVQGTQVTVSS | low polyreactivity
35 | QVHLVESGGWLVQAGGSLRLSCAASGLTFYNYAMGWYRPAPGKEREFVAAISRSGGTTYYADSVKGRFTISRDNAKYTVYLQMISLKPEDTAVYYCNAQWWRYWPSQVIFDYWGQGSQVTVSS | high polyreactivity
36 | QVQLVESGGGLVQAGGSLRLSCAASGRIFYGNTLGWYRQAPGKERELVAAISSGGSTNYADSVKGRFTISRDNAKNTVYLQMNSLKPEDTAVYYCAAAGRPGGYVQRDSWGQGTQVTVSS | high polyreactivity
37 | QVQLVESGGGLVQAGGSLRLSCAASGNTYLNAMGWYRQAPGKERELVAAISKGGADTYYADSVKGRFTISRDNAKNTVYLQMNSLKPEDTAVYYCAADGYADGWWVEYPWTYDYWGQGTQVTVSS | low polyreactivity
38 | QVQLVESGGGLDQAGGSLLLSCAASGSIFRSNAMGWYRQAPRKERELVAAIDYSGTSTTYADSVKGRFSISRDNAKNTVYLQMNSLKPEDTAVYYCNADGYYRGYWSGYEYWGQGTQGTVSS | low polyreactivity
39 | QVQLVESGGGLVQAGGSLRLSCAASGSIFVIYAMGWYRPAPGKERELVAAITGRGGRTYYADSVKGRFTISRDNAKNTVYLQMISLKPEDNAVYYCAADSVYTLGLKYDYWGHGTQVTVSS | high polyreactivity
40 | QVQLVESGGGLVQAGGSLRLSCAASGSIFGYYAMGWYRQAPGKERELVAAISWSGGSTYYADSVKGRFTISRDTAKNTVYLQMNSLKPEDTAVYYCAATSRGNDSQKYYYWGQGTQVTVSS | low polyreactivity
41 | QVQLVESGGGLGQAGGSLRLSCAASGFTFDFYAMGWYRQAPGKERELVAAISKNDGTTYYADSVKGRFTISRDNAKNTVYLQMNSLKPEDTAVYYCAAESGYPVYTYVSSGDYWGQGTQVTVSS | low polyreactivity
42 | QVQLVESGGGLVQAGGSLRLSCAASGRTFSTYAMGWYRQAPGKERELVAAISTSGSRTYYADSVKGRFTISRDNAKNTVYFQMNSLKPEDTAVYYCAATPLYYRYYVWQYDYWGQGTQVTVSS | high polyreactivity
43 | QVQLGESGGGLVQAGGSLRLSCAASGNTFYRNAMGWYRQAPGKERELVAAIDYSAGSTYYADCVKGRFTISRDNAKNTVYLQMHSLKPEDTADDYCAAVARTSRGRRYYSWGQGTQVTVSS | low polyreactivity
